Experiments:
HmuY = HmuY (Porphyromonas gingivalis, UniProt A2BCY8); test: UV-visible difference-spectrum heme titration of purified protein, one-site model; CD and MCD; format: binding
[1] = target: Porphyromonas gingivalis A7436 HmuY protein (Porphyromonas gingivalis A7436); test: SDS/PAGE; purified protein run on SDS/PAGE; samples solubilized at 37°C for 1 h or at 100°C for 5 min
[2] = target: Porphyromonas gingivalis A7436 HmuY protein (Porphyromonas gingivalis A7436); test: SEC; holo protein (with heme), under oxidizing conditions
[3] = target: Tannerella forsythia ATCC 43037 Tfo protein (Tannerella forsythia ATCC 43037); test: SEC; holo protein (with heme), under reducing conditions

For `C=CC1=C(C)C2=Cc3c(C=C)c(C)c4[n]3[Fe][n]3c(c(C)c(CCC(=O)O)c3=CC3=NC(=C4)C(C)=C3CCC(=O)O)=CC1=N2` [heme], the Kd (HmuY) was less than 1 nM.
Molecule “Porphyromonas gingivalis A7436 HmuY protein (natural protein)” has a stoichiometry N [1] of 2 and a stoichiometry N [2] of 2.
“Tannerella forsythia ATCC 43037 Tfo protein (natural protein)” was tested, and the stoichiometry N [3] was 2.
